Measured values as given in patent US20230416343A1 (SORRENTO THERAPEUTICS, published 2023).

Target: S protein of live SARS-CoV-2 WA-1/2020 isolate (SARS-CoV-2, UniProt P0DTC2 14-1273)
Assay: cell-based or functional assay

B1: S1D7270LALA antibody (STI-2020) (antibody, V domains shown)
VH: EVQLVESGGGLIQPGGSLRLSCAASGFTVSSNYMSWVRQAPGKGLEWVSIIYPGGSTEYADSVKGRFTISRDNSRNTLYLQMNSLRAEDTAVYYCARELGYYGMDVWGQGTTVTVSS
VL: DIQMTQSPSSVSASVGDRVTITCRASQGISTWLVWYQQKPGKAPNLLIYGASSLQSGVPSRFSGSGSGTDFTLTISSLQPEDFATYYCQQANAYPYTFGQGTKLEIK
For B1, the “IC50, inhibition of cytopathic effect (CPE) on Vero E6 cells, live virus” value was 0.055 µg/mL.
